# Laboratory results reported in patent US20090149389A1 (PURDUE RESEARCH FOUNDATION, published 2009).
# T1: IRAK4 (h) (human (h), UniProt Q9NWZ3 1-460, limits assumed)
# T1 sequence (looked up): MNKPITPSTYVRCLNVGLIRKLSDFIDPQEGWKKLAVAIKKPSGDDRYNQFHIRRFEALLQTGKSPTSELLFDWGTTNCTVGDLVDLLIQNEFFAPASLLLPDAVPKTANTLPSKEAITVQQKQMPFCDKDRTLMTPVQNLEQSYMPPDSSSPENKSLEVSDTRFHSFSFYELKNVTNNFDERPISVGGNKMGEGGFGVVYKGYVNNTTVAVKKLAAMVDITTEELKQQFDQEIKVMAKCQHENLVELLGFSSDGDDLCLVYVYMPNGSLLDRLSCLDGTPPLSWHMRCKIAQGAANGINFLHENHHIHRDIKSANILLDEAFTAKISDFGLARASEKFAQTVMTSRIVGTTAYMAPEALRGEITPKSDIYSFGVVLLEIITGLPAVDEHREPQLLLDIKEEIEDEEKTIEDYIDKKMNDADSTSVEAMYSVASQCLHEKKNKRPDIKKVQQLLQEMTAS
# T2: Aurora-A (h) (human (h), UniProt O14965 1-403)
# T2 sequence (looked up): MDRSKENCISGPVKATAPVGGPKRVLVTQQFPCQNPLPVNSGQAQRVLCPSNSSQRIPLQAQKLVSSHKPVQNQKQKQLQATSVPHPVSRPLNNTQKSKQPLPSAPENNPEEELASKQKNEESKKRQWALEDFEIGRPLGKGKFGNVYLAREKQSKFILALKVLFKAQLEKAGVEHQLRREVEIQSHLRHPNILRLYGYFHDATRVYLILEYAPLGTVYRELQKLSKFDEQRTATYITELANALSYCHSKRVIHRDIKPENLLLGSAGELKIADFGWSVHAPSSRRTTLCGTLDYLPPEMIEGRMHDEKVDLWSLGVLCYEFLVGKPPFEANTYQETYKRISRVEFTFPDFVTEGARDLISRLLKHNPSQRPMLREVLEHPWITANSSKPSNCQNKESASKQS
# T3: MKK4 (m) (mouse (m), UniProt P47809 35-397, limits assumed)
# T3 sequence (looked up): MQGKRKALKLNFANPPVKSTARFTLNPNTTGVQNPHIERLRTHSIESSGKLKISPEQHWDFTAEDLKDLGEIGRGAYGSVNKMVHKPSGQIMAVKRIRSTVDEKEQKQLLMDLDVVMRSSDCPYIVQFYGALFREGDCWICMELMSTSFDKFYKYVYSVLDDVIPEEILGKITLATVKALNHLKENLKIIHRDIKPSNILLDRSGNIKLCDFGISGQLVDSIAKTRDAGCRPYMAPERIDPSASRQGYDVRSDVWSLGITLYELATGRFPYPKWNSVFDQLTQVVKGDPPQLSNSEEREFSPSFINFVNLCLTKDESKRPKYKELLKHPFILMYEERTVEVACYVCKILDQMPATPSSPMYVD
# T4: EphA2 (h) (human (h), UniProt P29317 591-976, limits assumed)
# T4 sequence (looked up): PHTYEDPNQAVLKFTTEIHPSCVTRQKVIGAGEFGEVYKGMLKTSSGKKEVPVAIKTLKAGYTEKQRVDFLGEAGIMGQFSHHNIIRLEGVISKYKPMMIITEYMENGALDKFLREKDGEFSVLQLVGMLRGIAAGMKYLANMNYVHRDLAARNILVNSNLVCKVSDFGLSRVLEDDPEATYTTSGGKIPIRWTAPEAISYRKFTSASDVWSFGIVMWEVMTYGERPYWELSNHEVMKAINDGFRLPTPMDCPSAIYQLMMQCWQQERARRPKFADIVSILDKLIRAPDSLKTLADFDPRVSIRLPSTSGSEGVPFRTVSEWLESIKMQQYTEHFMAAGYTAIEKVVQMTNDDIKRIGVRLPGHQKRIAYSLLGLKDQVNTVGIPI
# T5: PRAK (UniProt Q8IW41 1-473, limits assumed)
# T5 sequence (looked up): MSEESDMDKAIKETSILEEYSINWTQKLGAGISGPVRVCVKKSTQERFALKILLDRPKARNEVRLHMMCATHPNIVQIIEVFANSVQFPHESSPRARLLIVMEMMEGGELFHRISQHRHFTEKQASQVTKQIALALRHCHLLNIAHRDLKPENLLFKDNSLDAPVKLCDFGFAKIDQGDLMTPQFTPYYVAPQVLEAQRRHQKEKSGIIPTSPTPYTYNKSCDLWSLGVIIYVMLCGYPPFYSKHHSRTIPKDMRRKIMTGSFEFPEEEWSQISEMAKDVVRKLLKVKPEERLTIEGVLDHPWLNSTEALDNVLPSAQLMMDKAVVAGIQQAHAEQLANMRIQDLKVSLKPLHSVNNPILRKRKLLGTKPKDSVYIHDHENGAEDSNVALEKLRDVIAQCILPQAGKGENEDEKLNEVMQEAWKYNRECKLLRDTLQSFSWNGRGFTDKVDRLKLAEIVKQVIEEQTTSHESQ
# Columns and labels:
# Experiment in all cases: cell-based or functional assay
# MEKI (h) = MEKI (h) (human (h), UniProt Q02750 1-393)
# Tie2 (h) = Tie2 (h) (human (h), UniProt Q02763 771-1124, limits assumed)
# Chain of Tie2 (h) (Q02763 771-1124 limits assumed): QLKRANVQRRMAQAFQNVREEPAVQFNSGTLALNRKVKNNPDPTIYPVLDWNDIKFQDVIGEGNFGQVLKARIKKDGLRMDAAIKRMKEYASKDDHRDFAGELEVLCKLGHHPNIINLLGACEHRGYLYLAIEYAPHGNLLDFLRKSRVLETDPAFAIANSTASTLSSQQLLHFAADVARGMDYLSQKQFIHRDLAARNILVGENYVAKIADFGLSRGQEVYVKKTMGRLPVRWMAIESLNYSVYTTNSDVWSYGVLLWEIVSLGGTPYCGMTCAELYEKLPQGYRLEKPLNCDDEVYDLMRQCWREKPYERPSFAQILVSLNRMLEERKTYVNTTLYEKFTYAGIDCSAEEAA
# FGFR1 (h) = FGFR1 (h) (human (h), UniProt P11362 456-765, limits assumed)
# Chain of FGFR1 (h) (P11362 456-765 limits assumed): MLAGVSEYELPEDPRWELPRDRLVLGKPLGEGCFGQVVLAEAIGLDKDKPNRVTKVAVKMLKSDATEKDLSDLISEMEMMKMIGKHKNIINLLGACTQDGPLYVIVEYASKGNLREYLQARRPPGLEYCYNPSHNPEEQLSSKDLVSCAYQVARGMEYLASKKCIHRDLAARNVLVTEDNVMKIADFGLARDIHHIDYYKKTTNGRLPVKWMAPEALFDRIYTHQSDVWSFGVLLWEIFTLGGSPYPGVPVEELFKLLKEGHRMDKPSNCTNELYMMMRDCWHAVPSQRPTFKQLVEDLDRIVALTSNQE
# GSK3β (h) = GSK3β (h) (human (h), UniProt P49841 1-420)
# Chain of GSK3β (h) (P49841 whole entry): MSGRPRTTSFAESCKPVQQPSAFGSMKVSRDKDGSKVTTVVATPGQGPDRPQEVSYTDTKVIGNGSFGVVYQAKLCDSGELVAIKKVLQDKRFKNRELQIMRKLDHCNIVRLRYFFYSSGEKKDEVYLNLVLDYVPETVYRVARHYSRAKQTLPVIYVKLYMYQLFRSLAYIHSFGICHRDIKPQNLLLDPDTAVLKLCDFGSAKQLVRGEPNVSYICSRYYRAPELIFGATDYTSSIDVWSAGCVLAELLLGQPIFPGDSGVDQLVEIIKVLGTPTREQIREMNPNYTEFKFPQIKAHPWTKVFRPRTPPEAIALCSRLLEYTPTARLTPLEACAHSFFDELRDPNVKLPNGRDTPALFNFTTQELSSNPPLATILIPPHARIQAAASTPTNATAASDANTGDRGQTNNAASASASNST
# Rsk2 (h) = Rsk2 (h) (human (h), UniProt P51812 1-740)
# Chain of Rsk2 (h) (P51812 whole entry): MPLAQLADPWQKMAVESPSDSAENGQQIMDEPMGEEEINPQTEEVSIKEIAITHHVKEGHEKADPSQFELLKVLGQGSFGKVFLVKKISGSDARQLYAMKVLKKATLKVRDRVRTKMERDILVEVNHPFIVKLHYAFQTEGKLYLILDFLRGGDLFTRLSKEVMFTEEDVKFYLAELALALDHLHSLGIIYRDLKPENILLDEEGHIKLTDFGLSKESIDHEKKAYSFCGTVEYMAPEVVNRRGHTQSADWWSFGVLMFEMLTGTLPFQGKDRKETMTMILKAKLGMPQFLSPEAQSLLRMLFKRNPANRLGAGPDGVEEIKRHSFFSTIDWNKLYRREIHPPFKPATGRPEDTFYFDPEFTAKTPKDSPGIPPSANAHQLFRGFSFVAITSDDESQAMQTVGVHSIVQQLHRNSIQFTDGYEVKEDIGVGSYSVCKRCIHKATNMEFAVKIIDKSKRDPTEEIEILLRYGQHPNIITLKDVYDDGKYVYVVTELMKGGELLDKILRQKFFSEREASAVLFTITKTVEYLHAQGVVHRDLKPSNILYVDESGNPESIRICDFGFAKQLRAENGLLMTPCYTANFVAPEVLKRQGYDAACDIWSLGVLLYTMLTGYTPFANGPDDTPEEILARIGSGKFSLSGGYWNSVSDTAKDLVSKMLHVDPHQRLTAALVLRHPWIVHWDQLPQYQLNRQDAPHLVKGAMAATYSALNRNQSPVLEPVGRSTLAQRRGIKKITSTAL
# CaMKI (h) = CaMKI (h) (human (h), UniProt Q14012 1-370, limits assumed)
# Chain of CaMKI (h) (Q14012 whole entry): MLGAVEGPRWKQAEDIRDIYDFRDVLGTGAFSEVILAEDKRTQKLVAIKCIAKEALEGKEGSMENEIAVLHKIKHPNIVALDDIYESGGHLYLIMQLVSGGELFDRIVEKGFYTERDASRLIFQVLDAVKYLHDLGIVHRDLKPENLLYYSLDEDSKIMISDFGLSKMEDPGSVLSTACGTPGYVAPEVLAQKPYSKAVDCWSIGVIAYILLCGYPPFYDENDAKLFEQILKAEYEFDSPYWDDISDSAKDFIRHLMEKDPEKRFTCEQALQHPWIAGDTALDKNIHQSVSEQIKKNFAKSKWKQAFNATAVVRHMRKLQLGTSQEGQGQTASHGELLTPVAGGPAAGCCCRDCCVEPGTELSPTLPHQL
# IRAK4 (h) = target: T1, IRAK4 (h)
# SAPK2 a (h) = SAPK2 a (h) (human (h), UniProt Q16539 1-360)
# Chain of SAPK2 a (h) (Q16539 whole entry): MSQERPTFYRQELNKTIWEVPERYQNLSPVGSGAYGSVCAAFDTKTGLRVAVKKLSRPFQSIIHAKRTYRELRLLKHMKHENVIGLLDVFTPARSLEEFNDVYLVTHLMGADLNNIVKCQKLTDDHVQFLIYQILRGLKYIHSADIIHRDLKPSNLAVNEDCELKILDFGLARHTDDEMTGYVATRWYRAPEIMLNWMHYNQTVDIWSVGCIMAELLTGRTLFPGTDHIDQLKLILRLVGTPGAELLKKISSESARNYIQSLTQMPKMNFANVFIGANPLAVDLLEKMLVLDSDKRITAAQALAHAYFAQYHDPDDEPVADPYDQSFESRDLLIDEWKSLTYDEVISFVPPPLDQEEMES
# Aurora-A (h) = target: T2, Aurora-A (h)
# MKK4 (m) = target: T3, MKK4 (m)
# CKIB (h) = CKIB (h) (human (h))
# EphA2 (h) = target: T4, EphA2 (h)
# MLCK (h) = MLCK (h) (human (h))
# MAPKAP-K3 (h) = MAPKAP-K3 (h) (human (h), UniProt Q16644 1-382, limits assumed)
# Chain of MAPKAP-K3 (h) (Q16644 whole entry): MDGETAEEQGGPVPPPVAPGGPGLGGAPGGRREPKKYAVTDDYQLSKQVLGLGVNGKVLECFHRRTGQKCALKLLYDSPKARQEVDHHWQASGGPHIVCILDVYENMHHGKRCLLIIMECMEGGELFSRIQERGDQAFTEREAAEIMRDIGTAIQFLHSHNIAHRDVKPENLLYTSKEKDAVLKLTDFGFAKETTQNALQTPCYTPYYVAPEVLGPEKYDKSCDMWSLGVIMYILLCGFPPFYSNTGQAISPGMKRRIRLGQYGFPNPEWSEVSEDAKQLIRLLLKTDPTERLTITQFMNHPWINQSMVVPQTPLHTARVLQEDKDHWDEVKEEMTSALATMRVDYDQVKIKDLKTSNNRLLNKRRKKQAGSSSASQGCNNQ
# PRAK = target: T5, PRAK
binder,measurement,setting,value
FAKLAARLYRKALARQLGVAA,Profile-1 @ = 100 µm (kinase profiler assay),MEKI (h),68
same,Profile-1 @ = 100 µm (kinase profiler assay),Tie2 (h),0
same,Profile-1 @ = 100 µm (kinase profiler assay),FGFR1 (h),22
same,Profile-1 @ = 100 µm (kinase profiler assay),GSK3β (h),188
same,Profile-1 @ = 100 µm (kinase profiler assay),Rsk2 (h),-1
same,Profile-1 @ = 100 µm (kinase profiler assay),CaMKI (h),0
same,Profile-1 @ = 100 µm (kinase profiler assay),IRAK4 (h),13
same,Profile-1 @ = 100 µm (kinase profiler assay),SAPK2 a (h),30
same,Profile-1 @ = 100 µm (kinase profiler assay),Aurora-A (h),65
same,Profile-1 @ = 100 µm (kinase profiler assay),MKK4 (m),90
same,Profile-1 @ = 100 µm (kinase profiler assay),CKIB (h),99
same,Profile-1 @ = 100 µm (kinase profiler assay),EphA2 (h),32
same,Profile-1 @ = 100 µm (kinase profiler assay),MLCK (h),1
same,Profile-1 @ = 100 µm (kinase profiler assay),MAPKAP-K3 (h),10
same,Profile-1 @ = 100 µm (kinase profiler assay),PRAK,131
